# Source: US9255256B2, “Expression of functional cytochorome P450 monooxygenase system in enterobacteria” (priority 1996, dated 2016)
# B1: ompA-CYP2D6 (protein)
# chain: MGLEALVPLAVIVAIFLLLVDLMHRRQRWAARYPPGPLPLPGLGNLLHVDFQNTPYCFDQLRRRFGDVFSLQLAWTPVVVLNGLAAVREALVTHGEDTADRPPVPITQILGFGPRSQGVFLARYGPAWREQRRFSVSTLRNLGLGKKSLEQWVTEEAACLCAAFANHSGRPFRPNGLLDKAVSNVIASLTCGRRFEYDDPRFLRLLDLAQEGLKEESGFLREVLNAVPVLLHIPALAGKVLRFQKAFLTQLDELLTEHRMTWDPAQPPRDLTEAFLAEMEKAKGNPESSFNDENLRIVVADLFSAGMVTTSTTLAWGLLLMILHPDVQRRVQQEIDDVIGQVRRPEMGDQAHMPYTTAVIHEVQRFGDIVPLGVTHMTSRDIEVQGFRIPKGTTLITNLSSVLKDEAVWEKPFRFHPEHFLDAQGHFVKPEAFLPFSAGRRACLGEPLARMELFLFFTSLLQHFSFSVPTGQPRPSHHGVFAFLVSPSPYELCAVPR
# Experiments:
# CYP2D6 [1] = target: T1, CYP2D6 (Homo sapiens, UniProt P10635); format: biochemical
# T1 construct: in frame to the 5′-end of the full length P450 cDNA; made in house; host or cells: E. coli JM109, membrane fractions
# Procedure: Assays on bacterial membrane fractions were carried out at 37° C. in 50 mM potassium phosphate buffer, pH 7.4, containing 20 or 50 pmol CYP2D6, 50 μM (±)-bufuralol, and a NADPH regenerating system (see Example 1) in a total volume of 300 μl. For membranes isolated from cells carrying pCW/ompA-CYP2D6 only (ie. no reductase co-expressed), the NADPH regenerating system was replaced by 100 μM cumene hydroperoxide. Reactions were stopped by the addition of 15 μl of 60% perchloric acid and placed on ice for 5-10 min. Precipitated proteins were removed by centrifugation, and then the supernatants were analysed for 1′-hydroxybufuralol by reversed-phase HPLC, with reference to authentic standard. Separation was achieved using a Spherisorb 5 μm ODS-2 column 25 cm×4.6 mm, and a mobile phase of 0.1 M ammonium acetate (pH 5.0) with a linear gradient of acetonitrile (27 to 51% in 12 min). Detection was by fluorescence using excitation and emission wavelengths of 252 and 302 nm, respectively.
# For the determination of Michaelis-Menten kinetic parameters, incubations were carried out for 5 min with 20 pmol CYP2D6 and varying concentrations of substrate (0 to 100 μM). Km and νmax were estimated from double-reciprocal plots of initial reaction velocity versus substrate concentration.
# CYP2D6 [2] = target: T1, CYP2D6; assay: Bufuralol 1′-hydroxylase assay, whole cells; format: cell-based
# Procedure: Assays on whole cells were carried out at 37° C. in 50 ml conical flasks, and contained 50 pmol CYP2D6, 50 μM (±)-bufuralol and 1×TSE buffer in a total volume of 5 ml. Samples (300 μl) were withdrawn at 0, 2, 5 and 10 min into tubes containing 15 μl of 60% perchloric acid on ice. Analysis then proceeded in an identical manner to the membrane assays (see above).
# P450 reductase = target: T2, P450 reductase (Homo sapiens, UniProt P16435)
# T2 sequence (P16435 with tags, fused parts or gaps): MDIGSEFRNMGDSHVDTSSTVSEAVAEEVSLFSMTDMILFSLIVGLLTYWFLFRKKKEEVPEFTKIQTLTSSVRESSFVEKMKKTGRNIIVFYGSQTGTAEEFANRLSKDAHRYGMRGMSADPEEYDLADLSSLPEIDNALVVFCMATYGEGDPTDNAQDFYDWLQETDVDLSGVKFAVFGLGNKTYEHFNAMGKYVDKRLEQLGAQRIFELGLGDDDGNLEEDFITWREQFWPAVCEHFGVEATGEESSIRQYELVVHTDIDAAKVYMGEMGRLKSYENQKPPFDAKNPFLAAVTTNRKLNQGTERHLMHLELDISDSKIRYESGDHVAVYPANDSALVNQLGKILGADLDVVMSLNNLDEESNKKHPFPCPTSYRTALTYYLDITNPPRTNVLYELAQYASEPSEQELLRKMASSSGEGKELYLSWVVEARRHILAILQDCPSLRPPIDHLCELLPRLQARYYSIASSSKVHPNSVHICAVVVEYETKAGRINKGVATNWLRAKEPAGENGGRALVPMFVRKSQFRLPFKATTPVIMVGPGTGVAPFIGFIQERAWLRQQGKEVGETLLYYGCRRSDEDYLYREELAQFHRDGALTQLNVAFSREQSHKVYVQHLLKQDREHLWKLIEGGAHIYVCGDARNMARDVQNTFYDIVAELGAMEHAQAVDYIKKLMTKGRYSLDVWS
# Procedure: An equal volume of ice-cold distilled water was then added. The CYP3A4 content was determined using Fe^2—CO vs Fe^2+ difference spectra by adding 50 μl whole cell suspension in 1×TSE to 950 μl 100 mM Tris. Cl (pH 7.4), 10 mM CHAPS, 20% v/v glycerol, 1 mM EDTA and reducing by adding a few grains of sodium dithionite. A baseline of zero absorbance was recorded between 500 and 400 nm, then the sample cuvette was bubbled under a steady stream of CO for about 1 minute. A spectrum was then recorded and the yield of spectrally active CYP3A4/1 culture determined. At this stage, an aliquot of whole cells was withdrawn for metabolism studies. […] The CYP3A4 and reductase content of the membranes was determined. The yield of active reductase was evaluated by a spectrophotometric assay, as follows. To 990 μl 50 μM cytochrome c in 0.3 M potassium phosphate buffer (pH 7.7), 1-10 μg membrane protein was added, and a baseline recorded. 50 μM NADPH was added and ΔA550 nm was recorded over time. To determine the P450 contents of membranes, spectra were obtained as for whole cells.
# [3] = target: T3, human P450 reductase fused at its N-terminus to the bacterial pelB leader sequence, P16435
# T3 chain: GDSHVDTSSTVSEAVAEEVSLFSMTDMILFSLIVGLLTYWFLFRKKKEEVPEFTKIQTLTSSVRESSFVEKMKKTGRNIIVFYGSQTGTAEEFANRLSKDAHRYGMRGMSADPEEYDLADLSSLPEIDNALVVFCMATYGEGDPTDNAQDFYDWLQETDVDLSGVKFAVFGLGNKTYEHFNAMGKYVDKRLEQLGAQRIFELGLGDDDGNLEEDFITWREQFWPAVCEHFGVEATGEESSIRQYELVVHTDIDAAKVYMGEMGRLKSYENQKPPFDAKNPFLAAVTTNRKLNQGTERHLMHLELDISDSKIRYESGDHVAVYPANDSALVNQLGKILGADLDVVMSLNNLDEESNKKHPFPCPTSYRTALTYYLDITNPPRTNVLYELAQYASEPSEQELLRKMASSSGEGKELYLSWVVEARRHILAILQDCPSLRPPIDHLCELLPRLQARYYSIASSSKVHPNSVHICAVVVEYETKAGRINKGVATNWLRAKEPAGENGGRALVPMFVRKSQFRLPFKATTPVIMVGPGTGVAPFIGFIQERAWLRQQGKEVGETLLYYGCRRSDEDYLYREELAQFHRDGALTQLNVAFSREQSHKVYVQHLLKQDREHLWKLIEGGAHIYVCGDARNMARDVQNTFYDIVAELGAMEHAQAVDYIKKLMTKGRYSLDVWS
molecule,measurement,setting,value
B1,Km,CYP2D6 [1],11.1 µM
same,"Vmax, bufuralol 1′-hydroxylation",CYP2D6 [1],13.3 min⁻¹
same,"specific activity, bufuralol hydroxylation",CYP2D6 [1],1.2 nmoles/min/mg membrane protein
same,"specific activity, fold higher than the value reported for human liver microsomes",CYP2D6 [1],40 fold
same,"bufuralol 1′-hydroxylase activity, intact E. coli",CYP2D6 [2],1.2 nmoles/min/mg protein
same,"turnover number, bufuralol hydroxylation, intact bacteria","CYP2D6 [2]; co-expressed with pelB-reductase, 50 μM bufuralol, no added NADPH",4.6 min⁻¹
same,"bufuralol 1′-hydroxylase activity, fold higher than average of a panel of human liver microsomes",CYP2D6 [2]; intact E. coli,about 20 fold
same,cytochrome c reductase activity,P450 reductase,530 nmol/min/mg
same,CYP2D6-dependent activities on co-expression,[3],"couples well with co-expressed reductase, catalysing typical CYP2D6-dependent activities"
same,"Vmax of bufuralol 1'-hydroxylation, membranes co-expressing both",[3],13.3 min⁻¹
same,bufuralol 1'-hydroxylase specific activity,[3],1.2 nmoles/min/mg membrane protein
same,"bufuralol 1'-hydroxylation turnover number, intact bacteria",[3],turnover numbers of 4.6 min^-1 and 5.7 min^-1 respectively
same,"bufuralol 1'-hydroxylation turnover number, membranes",[3],turnover numbers of 4.6 min^-1 and 5.7 min^-1 respectively
